This is an account of results in US20220396616A1 (SANYOU BIOPHARMACEUTICALS, published 2022).

The target in assay [1] is human CLDN18.2 (human). Description: cell-based or functional assay.
Assay [2] addresses T1, human CLDN18.2 (human).
T1 construct: also called hCLDN18.2; huCLDN18.2
Description: flow cytometry, phage supernatant; hCLDN18.2 cells against hCLDN18.1 cells. (A flow cytometer gives signals particle by particle.)
Description: (§1) firstly, 1×10⁵ of human CLDN18.2-HEK293T and human CLDN18.1-HEK293 cells were taken, respectively and centrifuged at a low speed of 500 g, and the supernatant was removed.

Assay [3] concerns the target T1, human CLDN18.2. Description: flow cytometry, phage supernatant on hCLDN18.2-expressing HEK293T cells.
Description: as §1
For assay [4], the target named is T2, human CLDN18.1 (human, UniProt P56856 1-261).
T2 construct: Full length, overexpressed on HEK293 cells; also called hCLDN18.1; human CLDN18.1-HEK293
T2 sequence (P56856 whole entry): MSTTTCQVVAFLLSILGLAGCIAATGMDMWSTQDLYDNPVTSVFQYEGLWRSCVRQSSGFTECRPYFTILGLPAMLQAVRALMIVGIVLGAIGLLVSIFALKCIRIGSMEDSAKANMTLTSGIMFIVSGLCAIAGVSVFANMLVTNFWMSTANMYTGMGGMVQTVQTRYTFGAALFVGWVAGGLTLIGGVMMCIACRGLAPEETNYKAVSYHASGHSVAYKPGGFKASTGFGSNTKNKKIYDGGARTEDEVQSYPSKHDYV
Description: flow cytometry, phage supernatant on hCLDN18.1-expressing HEK293 cells.
Description: as §1

Assay [5] addresses T2, human CLDN18.1. Description: flow cytometry, phage supernatant on human CLDN18.1-HEK293 cells.
Description: as §1
For assay [6], the target named is T2, human CLDN18.1. Description: flow cytometry on CLDN18.1-HEK293 cells, different concentrations.
Description: Therefore, in this example, different concentrations of the antibody (including the high concentration of 100 μg/mL) were used to incubate with CLDN18.1-HEK293 in vitro. […] The antibody at different concentrations and target cells CLDN18.1-HEK293 were incubated at 4° C. for 1 h and then rinsed three times with the FACS buffer mentioned above. 0.5 μg (0.5 mg/ml) of PE-labelled goat anti-human IgG Fc antibody (Abcam, ab98596) was added and incubated at 4° C. for another 1 h. […] The binding strength and the positive rate of cell binding were recorded.

B1: IMAB362 antibody (antibody, V domains shown)
VH: QVQLQQPGAELVRPGASVKLSCKASGYTFTSYWINWVKQRPGQGLEWIGNIYPSDSYTNYNQKFKDKATLTVDKSSSTAYMQLSSPTSEDSAVYYCTRSWRGNSFDYWGQGTTLTVSS
VL: DIVMTQSPSSLTVTAGEKVTMSCKSSQSLLNSGNQKNYLTWYQQKPGQPPKLLIYWASTRESGVPDRFTGSGSGTDFTLTISSVQAEDLAVYYCQNDYSYPFTFGSGTKLEIKR
Take B1: in the assay with human CLDN18.2 [1], the “CDC cell killing on CLDN18.2-KATOIII cells, EC50 (run with NA3S-H1)” value was found to be 149 nM; the “CDC cell killing on human CLDN18.2-HEK293T cells, EC50” value amounted to 0.936 nM; the “CDC cell killing on human CLDN18.2-KATOIII tumor cells, EC50 (run with NA1-S, FIG. 6b)” value is 50.9 nM; the “CDC cell killing on human CLDN18.2-KATOIII tumor cells, EC50 (run with NA3-S, FIG. 7d)” value was found to be 85.8 nM. Also, in the assay with human CLDN18.2 [1], the “Fab-ZAP cell killing (internalization) on CLDN18.2-HEK293T cells, IC50 (run with NA1-S)” value was 0.24 nM and the “Fab-ZAP cell killing (internalization) on CLDN18.2-HEK293T cells, IC50 (run with NA3-S)” value is 0.32 nM.

B2: A18-1-48 (VHH)
VHH: EVQLVESGGGLVQPGGSLRLSCAASGNIFRIDTMGWYRQAPGKQREFVAGISRGGSTNYAHSVKERFTISRDNAKNTMYLQMNSLKSEDTAGYYCNAQAWDPGTIRYLEVWGQGTLVTVSA
With B2, in the assay with human CLDN18.2 [2], the “ratio of mean fluorescence intensities on hCLDN18.2 and hCLDN18.1 cells” value (shortened to “ratio of mean fluorescence intensities”) is 103. The mean fluorescence intensity with human CLDN18.2 [3] came to 357000 MFI; in the assay with human CLDN18.1 [4], 3450 MFI.

B3: A18-1-50 (VHH)
VHH: EVQVQESGGGLVQPGGSLRLSCAASGNIFRIDTMGWYRQAPGKQRELVAGISRGGTTTYAHSVKERFTISRDNAKNTMYLQMNSLKSEDTAGYYCNAQAWDPGTFRYLEVWGQGTLVTVSA
As to B3, the “ratio of mean fluorescence intensities” value with human CLDN18.2 [2] is 67. Besides, the mean fluorescence intensity came to 403000 MFI with human CLDN18.2 [3] and 6040 MFI with human CLDN18.1 [4].

B4: A18-1-75 (VHH)
VHH: EVQLVESGGGLVQPGGSLRLSCAASGNIFRIDTMVWYRQAPGKQRELVAGISRGGTTNYAHSVKGRFTISRDNAKNTMYLQMNSLKSEDTATYYCNAQAWDVGTIRYLEVWGQGTLVTVSA
For B4, the “ratio of mean fluorescence intensities” value with human CLDN18.2 [2] amounted to 99. Further, the results for the mean fluorescence intensity in the assay with human CLDN18.2 [3] and in the assay with human CLDN18.1 [4] were 387000 MFI and 3890 MFI, respectively.

B5: A18-1-78 (VHH)
VHH: EVQLQESGGGLVQPGGSLRLSCAASGNIFRIDTMGWYRQAPGKQREFVAGISRGGSTNYAHSVKERFTISRDNAKNTMYLQMNSLKSEDTAGYYCNAQAWDPGTIRYLEVWGQGTLVTVSA
Regarding B5, the “ratio of mean fluorescence intensities” value in the assay with human CLDN18.2 [2] is 105. The mean fluorescence intensity with human CLDN18.2 [3] came to 385000 MFI; with human CLDN18.1 [4], 3680 MFI.

B6: A18-1-64 (VHH)
VHH: QVQLVESGGGLVQPGGSLRLSCAASGNIFRIDTMGWYRQAPGKQREFVAGISRGGSTNYAHSVKERFTISRDNAKNTMYLQMNSLKSEDTAGYYCNAQAWDPGTIRYLEVWGQGTLVTVSS
With B6, the “ratio of mean fluorescence intensities” value with human CLDN18.2 [2] was determined as 116. In addition, the mean fluorescence intensity with human CLDN18.2 [3] came to 406000 MFI; with human CLDN18.1 [4], 3500 MFI.

B7: A-2-4 (VHH)
VHH: EVQVQESGGGLVQAGTSLRLSCAASGNIFRIDTMGWYRQAPGKQRELVAGISRGGTTTYAHSVKERFTISRDNAKNTMYLQMNSLKSEDTAGYYCNAQAWDPGTFRYLEVWGQGTLVTVSA
notes: also called candidate nanobody A-2-4
As to B7, the “ratio of mean fluorescence intensities” value with human CLDN18.2 [2] turned out to be 137. The results for the mean fluorescence intensity with human CLDN18.2 [3] and with human CLDN18.1 [4] were 592000 MFI and 4330 MFI, respectively.

B8: A18-1-70 (VHH)
VHH: QVQLVESGGGLVQPGGSLRLSCAASGNIFRIDTMGWYRQAPGKQRELVAGISRGGTTTYAHSVKERFTISRDNAKNTMYLQMNSLKSEDTAGYYCNAQAWDPGTFRYLEVWGQGTLVTVSA
For the molecule B8, in the assay with human CLDN18.2 [2], the “ratio of mean fluorescence intensities” value was 65. For the same molecule, the figures for the mean fluorescence intensity in the assay with human CLDN18.2 [3] and with human CLDN18.1 [4] were 402000 MFI and 6230 MFI, respectively.

B9: A293-82 (VHH)
VHH: EVQVVESGGGLVQPGGSLRLSCAASGNIFRIDTMVWYRQAPGKQRELVAGISRGGTTNYAHSVKGRFTISRDNAKNTMYLQMNSLKSEDTATYYCNAQAWDVGTIRYLEVWGQGTLVTVSA
With B9, in the assay with human CLDN18.2 [2], the “ratio of mean fluorescence intensities” value was determined as 102. The figures for the mean fluorescence intensity with human CLDN18.2 [3] and with human CLDN18.1 [4] were 442000 MFI and 4320 MFI, respectively.

B10: A18-1-42 (VHH)
VHH: EVQVVESGGGLVQPGGSLRLSCAASGSILHIPVMSWYRQAPGKQRELVAGISTGGTTNYGDSVKGRFTISRDNAKNTVYLQMNSLKPEDTAAYYCNVLVVSGIGSHLEVWG
notes: also called candidate nanobody A18-1-42
As to B10, in the assay with human CLDN18.2 [2], the “ratio of mean fluorescence intensities” value worked out at 392. The figures for the mean fluorescence intensity with human CLDN18.2 [3] and with human CLDN18.1 [4] were 396000 MFI and 1010 MFI, respectively. Moreover, the binding result in the assay with human CLDN18.1 [5] was “no binding”.

B11: A18-1-44 (VHH)
VHH: EVQLVESGGGLVQPGGSLRLSCAASGSIFNLPVMSWYRQAPGKQRELVAGISTGGTTNYGDSVKGRFTISRDNAKNTVYLQMNSLKPEDTAVYYCNVLVISGIGSHLEVWG
As to B11, in the assay with human CLDN18.2 [2], the “ratio of mean fluorescence intensities” value was found to be 104. For the same molecule, the results for the mean fluorescence intensity with human CLDN18.2 [3] and in the assay with human CLDN18.1 [4] were 390000 MFI and 3740 MFI, respectively. The binding result with human CLDN18.1 [5] is recorded as “no binding”.

B12: A18-1-6 (VHH)
VHH: EVQVQESGGGLVQPGGSLRLSCAASGSIFNIPVMSWYRQAPGKQRELVAGISTGGTTNYGDSVKGRFTISRDNAKTTVYLQMNSLKPEDTAVYYCNVLVISGIGSHLEVWG
On to B12, for which, in the assay with human CLDN18.2 [2], the “ratio of mean fluorescence intensities” value was found to be 201. Besides, the mean fluorescence intensity was 396000 MFI with human CLDN18.2 [3] and 1970 MFI with human CLDN18.1 [4]. Besides, the binding result with human CLDN18.1 [5] is given as “no binding”.

B13: A18-1-45 (VHH)
VHH: EVQLQESGGGLVQPGGSLRLSCAASGIIFNIPVMSWYRQAPGKQRELVAGISTGGTTNYGDSVKGRFTISRDNAKNTVYLQMNSLKPEDTAVYYCNVLVVSGIGSHLEVWG
Take B13: the “ratio of mean fluorescence intensities” value with human CLDN18.2 [2] was found to be 78. Further, the mean fluorescence intensity with human CLDN18.2 [3] came out at 369000 MFI; in the assay with human CLDN18.1 [4], 4750 MFI. In addition, the binding result with human CLDN18.1 [5] is “no binding”.

B14: A18-1-65 (VHH)
VHH: EVQLQESGGGLVQPGGSLRLSCAASGTIFNLPVMSWYRQAPGKQRELVAGISTGGTTNYGDSVKGRFTISRDNARNTVYLQMNSLKPEDTAVYYCNVLVVSGIGSHLEVWG
B14: the “ratio of mean fluorescence intensities” value with human CLDN18.2 [2] turned out to be 73. Further, the mean fluorescence intensity in the assay with human CLDN18.2 [3] came out at 428000 MFI; with human CLDN18.1 [4], 5890 MFI. For the same molecule, the binding result with human CLDN18.1 [5] is given as “no binding”.

B15: A-2-3 (VHH)
VHH: EVQLVESGGGLVQPGGSLRLSCAASGSIFNLPVMSWYRQAPGKQRELVAGISTGGTTNYGDSVKGRFTISRDNAKNTVYLQMNSLKPEDTAVYYCNVLVVSGIGSHLEVWG
Turning to B15, the “ratio of mean fluorescence intensities” value with human CLDN18.2 [2] turned out to be 175. In addition, the mean fluorescence intensity in the assay with human CLDN18.2 [3] was found to be 570000 MFI; with human CLDN18.1 [4], 3260 MFI. In addition, in the assay with human CLDN18.1 [5], the binding result is recorded as “no binding”.

B16: A18-1-62 (VHH)
VHH: QVQLVESGGGLVQPGGSLRLSCAASGTIFNIPVMGWYRQAPGKQRELVAGISTGGTTNYGDSVKGRFTISRDNAKNTVYLQMNSLKPEDTAVYYCNVLVISGIGSHLEVWG
As to B16, the “ratio of mean fluorescence intensities” value with human CLDN18.2 [2] amounted to 126. Moreover, the mean fluorescence intensity was found to be 372000 MFI with human CLDN18.2 [3] and 2940 MFI in the assay with human CLDN18.1 [4]. Besides, the binding result with human CLDN18.1 [5] is given as “no binding”.

B17: A293-34 (VHH)
VHH: QVQLQESGGGLVQPGGSLRLSCAASGTFFNIPVMGWYRQAPGKQRELVAGISTGGTTNYGDSVKGRFTISRDNAKNTVYLQMNSLKPEDTAVYYCNVLVISGIGSHLEVWG
notes: also called candidate nanobody A293-34
In the case of B17, the “ratio of mean fluorescence intensities” value with human CLDN18.2 [2] turned out to be 187. In addition, the mean fluorescence intensity in the assay with human CLDN18.2 [3] was 454000 MFI; with human CLDN18.1 [4], 2430 MFI. For the same molecule, the binding result with human CLDN18.1 [5] is “no binding”.

B18: humanized antibody NA3S-H1 (Fc fusion)
chain: QVQLVESGGGLVQPGGSLRLSCAASGSIFNIPVMGWYRQAPGKQRELVAGISTGGTTNYGDSVKGRFTISRDNAKNTVYLQMNSLKPEDTAVYYCNVLVVSGIGSTLEVWGQGTLVTVSS
notes: Humanized form of NA3-S; also called candidate antibody NA3S-H1; humanized molecule NA3S-H1; not shown: a human IgG Fc is implied (detected with anti-human IgG Fc)
As to B18, the binding result in the assay with human CLDN18.1 [6] is reported as “no binding (tested: 100 µg/mL)”. In addition, in the assay with human CLDN18.2 [1], the “CDC cell killing on CLDN18.2-KATOIII cells, EC50” value is 10.4 nM.

B19: A18-1-63 (VHH)
VHH: QVQLQESGGGLVQPGGSLRLSCAASGSIFNIPVMGWYRQAPGKQRELVAGISTGGTTNYGDSVKGRFTISRDNAKNTVYLQMNSLKPEDTAVYYCNVLVVSGIGSTLEVWG
notes: also called candidate nanobody A18-1-63
For the molecule B19, the “ratio of mean fluorescence intensities” value with human CLDN18.2 [2] turned out to be 2200. The mean fluorescence intensity was determined as 385000 MFI with human CLDN18.2 [3] and 175 MFI with human CLDN18.1 [4]. The binding result with human CLDN18.1 [5] was “no binding”.

B20: A293-55 (VHH)
VHH: QVQLVESGGGSVQPGGSLRLSCAASGSIFHIVVMGWYRQAPGKQRELVAGMSTGGTTNYGDSVKGRFTISRDNAKNTVYLQMNSLKPEDTAVYYCNVLVISGIGSHLEVWG
Take B20: the “ratio of mean fluorescence intensities” value with human CLDN18.2 [2] worked out at 117. Also, the results for the mean fluorescence intensity with human CLDN18.2 [3] and with human CLDN18.1 [4] were 392000 MFI and 3340 MFI, respectively. Further, the binding result with human CLDN18.1 [5] is on record as “no binding”.
